Patent publication US20250251406A1

Experiments:
[1] = biological target: IL-17A/A dimer (Homo sapiens (Human)) (UniProt Q16552)
[2] = biological target: IL-17A/F dimer (Homo sapiens (Human)) (UniProt Q16552)
[3] = biological target: IL-17A/A dimer (Homo sapiens (Human)) (UniProt Q16552); test: Alphascreen (protein-protein interaction assay); inhibition of IL17AA with IL-17RA
[4] = biological target: IL-17A/F dimer (Homo sapiens (Human)) (UniProt Q16552); test: Alphascreen (protein-protein interaction assay); inhibition of IL17AF with IL-17RA
[5] = biological target: IL-17F/F dimer (Homo sapiens (Human)) (UniProt Q96PD4); test: Alphascreen (protein-protein interaction assay); inhibition of IL17FF with IL-17RC
Chain of UniProt Q96PD4 (Q96PD4 31-163 limits assumed): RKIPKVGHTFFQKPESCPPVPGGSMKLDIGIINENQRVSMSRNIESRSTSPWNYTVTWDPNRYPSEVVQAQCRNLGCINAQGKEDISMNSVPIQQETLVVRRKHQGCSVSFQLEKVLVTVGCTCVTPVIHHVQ

sonelokimab (VHH)
% inhibition of CCL20 expression (TNF + IL17A/A stimulation) in keratinocytes, SLK 0.1 µg/mL [1]: -66% | % inhibition of CCL20 expression (TNF + IL17A/A stimulation) in keratinocytes, SLK 1 µg/mL [1]: -66% | % inhibition of CXCL8 expression (TNF + IL17A/A stimulation) in keratinocytes, SLK 0.1 µg/mL [1]: -73% | % inhibition of CXCL8 expression (TNF + IL17A/A stimulation) in keratinocytes, SLK 1 µg/mL [1]: -88% | % inhibition of CCL20 expression (TNF + IL17A/F stimulation) in keratinocytes, SLK 0.1 µg/mL [2]: -75% | % inhibition of CCL20 expression (TNF + IL17A/F stimulation) in keratinocytes, SLK 1 µg/mL [2]: -53% | % inhibition of CXCL8 expression (TNF + IL17A/F stimulation) in keratinocytes, SLK 0.1 µg/mL [2]: -61% | % inhibition of CXCL8 expression (TNF + IL17A/F stimulation) in keratinocytes, SLK 1 µg/mL [2]: -68% | IC50 [3]: 0.039 nM | IC50 [4]: 0.066 nM | IC50 [5]: 0.013 nM
